Source: US20140087995A1 (published 2014)
Numbered stars: 1 amine (or outer) side, 2 acyl side, 3 side chain; on linkers, the order of the positions; unused ones are H or OH. Bridge positions count the residues as written; N and C are the ends. Side chains are listed from the residue outwards. Ends that are not written are not given here. * marks the point of attachment. C20 diacid = O=C(O)CCCCCCCCCCCCCCCCCCC(=O)*; γGlu = O=C(O)[C@H](CCC(=O)[*:2])N[*:1]

T1: rat calcitonin receptor (rat, UniProt P32214 25-516)
T1 construct: whole, on cells; Membranes prepared from transiently transfected BHK tk'ts 13 cells; also called rCTR; rat calcitonin (a) receptor
T1 sequence (looked up): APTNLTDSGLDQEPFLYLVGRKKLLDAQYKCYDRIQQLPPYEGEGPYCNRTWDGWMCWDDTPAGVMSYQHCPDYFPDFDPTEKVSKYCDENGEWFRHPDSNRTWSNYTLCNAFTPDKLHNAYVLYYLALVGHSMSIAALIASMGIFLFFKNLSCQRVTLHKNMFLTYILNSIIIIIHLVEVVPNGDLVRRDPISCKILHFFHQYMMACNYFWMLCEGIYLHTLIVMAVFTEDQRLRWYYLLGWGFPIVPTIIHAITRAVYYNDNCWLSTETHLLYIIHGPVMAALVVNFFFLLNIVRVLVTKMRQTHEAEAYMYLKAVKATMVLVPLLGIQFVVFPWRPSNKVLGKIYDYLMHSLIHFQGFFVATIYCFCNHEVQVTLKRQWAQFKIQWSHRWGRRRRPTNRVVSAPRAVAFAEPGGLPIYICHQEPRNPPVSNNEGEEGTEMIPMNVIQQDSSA

T2: human calcitonin receptor (human, UniProt P30988 25-474)
T2 construct: whole, on cells; Membranes from stably transfected BHK cells; also called hCTR; hCT
T2 sequence (looked up): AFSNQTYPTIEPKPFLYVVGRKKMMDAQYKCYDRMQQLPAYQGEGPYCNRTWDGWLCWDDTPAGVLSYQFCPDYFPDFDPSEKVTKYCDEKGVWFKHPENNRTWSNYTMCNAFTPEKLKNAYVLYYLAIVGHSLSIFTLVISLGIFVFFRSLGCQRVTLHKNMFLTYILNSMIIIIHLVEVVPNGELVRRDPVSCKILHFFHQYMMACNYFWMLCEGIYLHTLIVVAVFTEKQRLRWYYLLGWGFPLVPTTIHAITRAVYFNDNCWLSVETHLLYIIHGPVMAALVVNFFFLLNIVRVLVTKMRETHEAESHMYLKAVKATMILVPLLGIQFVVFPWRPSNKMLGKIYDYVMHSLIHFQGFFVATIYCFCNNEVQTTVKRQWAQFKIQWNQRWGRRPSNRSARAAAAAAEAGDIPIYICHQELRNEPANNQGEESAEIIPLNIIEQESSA

T3: rat amylin receptor (rat calcitonin receptor + rat RAMP 3) (rat, UniProt P32214 25-516; Q9JJ73 23-147)
T3 construct: whole, on cells; Membranes prepared from transiently transfected BHK tk'ts 13 cells; also called rAmylin-R; rat amylin 3(a) receptor
T3 sequence (looked up) 1: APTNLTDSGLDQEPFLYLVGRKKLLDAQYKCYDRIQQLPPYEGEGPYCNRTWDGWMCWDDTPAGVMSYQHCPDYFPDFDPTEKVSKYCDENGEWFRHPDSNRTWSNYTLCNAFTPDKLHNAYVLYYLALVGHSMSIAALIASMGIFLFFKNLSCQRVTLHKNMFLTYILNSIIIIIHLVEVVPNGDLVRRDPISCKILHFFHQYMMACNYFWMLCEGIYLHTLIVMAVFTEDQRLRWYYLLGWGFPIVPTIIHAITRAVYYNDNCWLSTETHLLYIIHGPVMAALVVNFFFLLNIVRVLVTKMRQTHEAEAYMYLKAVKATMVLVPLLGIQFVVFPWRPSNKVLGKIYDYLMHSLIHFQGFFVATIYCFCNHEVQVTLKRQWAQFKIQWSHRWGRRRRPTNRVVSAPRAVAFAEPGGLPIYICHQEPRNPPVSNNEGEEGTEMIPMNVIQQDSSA
T3 sequence (looked up) 2: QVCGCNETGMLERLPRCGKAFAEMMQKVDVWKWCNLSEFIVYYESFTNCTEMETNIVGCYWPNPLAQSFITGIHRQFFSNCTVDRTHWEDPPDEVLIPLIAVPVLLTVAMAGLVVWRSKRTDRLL


What was measured:
rat calcitonin receptor [1] = biological target: T1, rat calcitonin receptor; assay: ratio of IC50 on rat calcitonin receptor to IC50 on rat amylin receptor
[2] = biological target: T2, human calcitonin receptor; assay: ratio of IC50 on human calcitonin receptor to IC50 on human amylin receptor
Description: The resulting pellet was resuspended, homogenized and centrifuged (20.000 rpm, 15 min) in a buffer containing 20 mM Na-HEPES and 0.1 mM EDTA (pH 7.4, buffer 2). The resulting pellet was resuspended in buffer 2 and protein concentration was measured (BCA protein Assay, Pierce). The homogenate was kept cold during the whole procedure. The membranes were kept at −80° C. until use. The assay was performed in a 384 well Optiplate (PerkinElmer) in a total volume of 40 ul. Membranes were mixed with SPA beads. Final concentration of membranes 35 ng/μL final and SPA beads was 0.05 mg/well. Test-compounds were dissolved in DMSO and further diluted in assay buffer (50 mM Hepes, pH 7.4, 1 mM CaCl2, 5 mM MgCl₂, 0.1% OA and 0.02% Tween20). […] The final mixture was incubated with shaking at 400 rpm for 120 min at 25° C. prior to centrifugation (1500 rpm, 10 min). Samples were analyzed on TopCounter™ (Packard). The IC₅₀ was calculated using (one site binding competition analysis) GraphPad Prism5 as a measure of receptor affinity.
Membranes were prepared in the following way; the cells were rinsed with PBS and incubated with Versene for approximately 5 min before harvesting. The cells were flushed with PBS and the cell-suspension was centrifuged for 5 min at 1000 rpm. Cells were homogenized (Ultrathurrax) in a buffer containing 20 mM Na-HEPES and 10 mM EDTA (pH 7.4) and centrifuged at 20.000 rpm for 15 min. The resulting pellet was resuspended, homogenized and centrifuged (20.000 rpm, 15 min) in a buffer containing 20 mM Na-HEPES and 0.1 mM EDTA (pH 7.4, buffer 2). The resulting pellet was resuspended in buffer 2 and protein concentration was measured (BCA protein Assay, Pierce). The homogenate was kept cold during the whole procedure. The membranes were kept at −80° C. until use. Assay was performed in a 384 well Optiplate (PerkinElmer) in a total volume of 40 ul. Membranes were mixed with SPA beads.

[3] = biological target: T3, rat amylin receptor (rat calcitonin …); assay: SPA competition vs 125I-rat amylin, membranes (Assay VI)
rat calcitonin receptor [4] = biological target: T1, rat calcitonin receptor; assay: SPA competition vs 125I-calcitonin, membranes (Assay VIII)

Row | Ratio rCT/rAmylin binding (rat calcitonin receptor [1]) | Ratio hCT/hAmylin binding [2] | IC50 [3] [nM] | IC50 (rat calcitonin receptor [4]) [nM] | Binder
1 | 116 | 151 | 0.504 | 58.5 | K([γGlu-C20 diacid])CNTATCATQRLADFLRHSSPNFGAIPSSTNVGPRTY-NH2 (disulfide 2-7; N-terminus assumed; SMILES CC[C@H](C)[C@H](NC(=O)[C@H](C)NC(=O)CNC(=O)[C@H](Cc1ccccc1)NC(=O)[C@H](CC(N)=O)NC(=O)[C@@H]1CCCN1C(=O)[C@H](CO)NC(=O)[C@H](CO)NC(=O)[C@H](Cc1c[nH]cn1)NC(=O)[C@H](CCCNC(=N)N)NC(=O)[C@H](CC(C)C)NC(=O)[C@H](Cc1ccccc1)NC(=O)[C@H](CC(=O)O)NC(=O)[C@H](C)NC(=O)[C@H](CC(C)C)NC(=O)[C@H](CCCNC(=N)N)NC(=O)[C@H](CCC(N)=O)NC(=O)[C@@H](NC(=O)[C@H](C)NC(=O)[C@@H]1CSSC[C@H](NC(=O)[C@@H](N)CCCCNC(=O)CC[C@H](NC(=O)CCCCCCCCCCCCCCCCCCC(=O)O)C(=O)O)C(=O)N[C@@H](CC(N)=O)C(=O)N[C@@H]([C@@H](C)O)C(=O)N[C@@H](C)C(=O)N[C@@H]([C@@H](C)O)C(=O)N1)[C@@H](C)O)C(=O)N1CCC[C@H]1C(=O)N[C@@H](CO)C(=O)N[C@@H](CO)C(=O)N[C@H](C(=O)N[C@@H](CC(N)=O)C(=O)N[C@H](C(=O)NCC(=O)N1CCC[C@H]1C(=O)N[C@@H](CCCNC(=N)N)C(=O)N[C@H](C(=O)N[C@@H](Cc1ccc(O)cc1)C(N)=O)[C@@H](C)O)C(C)C)[C@@H](C)O)
2 | 62 | 16.7 | 0.3 | 18.6 | K([γGlu-C20 diacid])CNTATCATQRLADFLRHSSPNFGAIPSSTNVGPETY-NH2 (disulfide 2-7; N-terminus assumed; SMILES CC[C@H](C)[C@H](NC(=O)[C@H](C)NC(=O)CNC(=O)[C@H](Cc1ccccc1)NC(=O)[C@H](CC(N)=O)NC(=O)[C@@H]1CCCN1C(=O)[C@H](CO)NC(=O)[C@H](CO)NC(=O)[C@H](Cc1c[nH]cn1)NC(=O)[C@H](CCCNC(=N)N)NC(=O)[C@H](CC(C)C)NC(=O)[C@H](Cc1ccccc1)NC(=O)[C@H](CC(=O)O)NC(=O)[C@H](C)NC(=O)[C@H](CC(C)C)NC(=O)[C@H](CCCNC(=N)N)NC(=O)[C@H](CCC(N)=O)NC(=O)[C@@H](NC(=O)[C@H](C)NC(=O)[C@@H]1CSSC[C@H](NC(=O)[C@@H](N)CCCCNC(=O)CC[C@H](NC(=O)CCCCCCCCCCCCCCCCCCC(=O)O)C(=O)O)C(=O)N[C@@H](CC(N)=O)C(=O)N[C@@H]([C@@H](C)O)C(=O)N[C@@H](C)C(=O)N[C@@H]([C@@H](C)O)C(=O)N1)[C@@H](C)O)C(=O)N1CCC[C@H]1C(=O)N[C@@H](CO)C(=O)N[C@@H](CO)C(=O)N[C@H](C(=O)N[C@@H](CC(N)=O)C(=O)N[C@H](C(=O)NCC(=O)N1CCC[C@H]1C(=O)N[C@@H](CCC(=O)O)C(=O)N[C@H](C(=O)N[C@@H](Cc1ccc(O)cc1)C(N)=O)[C@@H](C)O)C(C)C)[C@@H](C)O)
3 | 34.6 | 11.1 | 0.958 | 33.1 | K([γGlu-C20 diacid])CNTATCATQRLAEFLRHSSPNFGAIPSSTNVGHETY-NH2 (disulfide 2-7; N-terminus assumed; SMILES CC[C@H](C)[C@H](NC(=O)[C@H](C)NC(=O)CNC(=O)[C@H](Cc1ccccc1)NC(=O)[C@H](CC(N)=O)NC(=O)[C@@H]1CCCN1C(=O)[C@H](CO)NC(=O)[C@H](CO)NC(=O)[C@H](Cc1c[nH]cn1)NC(=O)[C@H](CCCNC(=N)N)NC(=O)[C@H](CC(C)C)NC(=O)[C@H](Cc1ccccc1)NC(=O)[C@H](CCC(=O)O)NC(=O)[C@H](C)NC(=O)[C@H](CC(C)C)NC(=O)[C@H](CCCNC(=N)N)NC(=O)[C@H](CCC(N)=O)NC(=O)[C@@H](NC(=O)[C@H](C)NC(=O)[C@@H]1CSSC[C@H](NC(=O)[C@@H](N)CCCCNC(=O)CC[C@H](NC(=O)CCCCCCCCCCCCCCCCCCC(=O)O)C(=O)O)C(=O)N[C@@H](CC(N)=O)C(=O)N[C@@H]([C@@H](C)O)C(=O)N[C@@H](C)C(=O)N[C@@H]([C@@H](C)O)C(=O)N1)[C@@H](C)O)C(=O)N1CCC[C@H]1C(=O)N[C@@H](CO)C(=O)N[C@@H](CO)C(=O)N[C@H](C(=O)N[C@@H](CC(N)=O)C(=O)N[C@H](C(=O)NCC(=O)N[C@@H](Cc1c[nH]cn1)C(=O)N[C@@H](CCC(=O)O)C(=O)N[C@H](C(=O)N[C@@H](Cc1ccc(O)cc1)C(N)=O)[C@@H](C)O)C(C)C)[C@@H](C)O, also called compound 107)
4 | 81.1 | 28.5 | 1.06 | 86.1 | K([γGlu-C20 diacid])CNTATCATQRLAEFLRHSSPNFGAIPSSTNVGRETY-NH2 (disulfide 2-7; N-terminus assumed; SMILES CC[C@H](C)[C@H](NC(=O)[C@H](C)NC(=O)CNC(=O)[C@H](Cc1ccccc1)NC(=O)[C@H](CC(N)=O)NC(=O)[C@@H]1CCCN1C(=O)[C@H](CO)NC(=O)[C@H](CO)NC(=O)[C@H](Cc1c[nH]cn1)NC(=O)[C@H](CCCNC(=N)N)NC(=O)[C@H](CC(C)C)NC(=O)[C@H](Cc1ccccc1)NC(=O)[C@H](CCC(=O)O)NC(=O)[C@H](C)NC(=O)[C@H](CC(C)C)NC(=O)[C@H](CCCNC(=N)N)NC(=O)[C@H](CCC(N)=O)NC(=O)[C@@H](NC(=O)[C@H](C)NC(=O)[C@@H]1CSSC[C@H](NC(=O)[C@@H](N)CCCCNC(=O)CC[C@H](NC(=O)CCCCCCCCCCCCCCCCCCC(=O)O)C(=O)O)C(=O)N[C@@H](CC(N)=O)C(=O)N[C@@H]([C@@H](C)O)C(=O)N[C@@H](C)C(=O)N[C@@H]([C@@H](C)O)C(=O)N1)[C@@H](C)O)C(=O)N1CCC[C@H]1C(=O)N[C@@H](CO)C(=O)N[C@@H](CO)C(=O)N[C@H](C(=O)N[C@@H](CC(N)=O)C(=O)N[C@H](C(=O)NCC(=O)N[C@@H](CCCNC(=N)N)C(=O)N[C@@H](CCC(=O)O)C(=O)N[C@H](C(=O)N[C@@H](Cc1ccc(O)cc1)C(N)=O)[C@@H](C)O)C(C)C)[C@@H](C)O)
